The record followed here is patent US20150018409A1, “CHIMERIC POLYPEPTIDES AND THEIR USE” (ADRIACELL S.P.A., priority 2003, published 2015).

In test [1] the test system is U2OS osteosarcoma cells and IMR90 primary fibroblasts. Description: Protein transduction of the chimeric proteins (immunoblot and immunofluorescence with PvuII antibody). The test is classed as cell-based, human. The method, then: For a comparison aliquots of the supernatants of the cell culture taken before extract preparation were included in the analysis (upper panel, SUPERNATANT).
In addition DNA costaining was obtained with propidium J after RNAse A digest (red, upper panel).
The transduction capacity of the chimeric proteins was assayed in U2OS osteosarcoma cells and in the IMR90 primary fibroblasts cells. The cells were grown in DMEM containing 10% FCS and treated with the proteins of the invention in the same medium, in general in the presence of antibiotics. After 10 minutes of incubation of the cells with increasing quantities of the fusion protein […] (1, 10, 50, 100, 200 nM) and with the protein SCPVU (single chain PvuII without TAT) and SC34 as a control (prepared as described for […] except that the enzyme PvuII contains a mutant in position 34) cell extracts were prepared, separated on SDS-PAGE and assayed by immuno-blot analysis with a monospecific antibody to PvuII. Further, uptake was assayed after 30 min of incubation by immuno-fluorescence analysis using PvuII specific antibodies and nuclear costaining with propidium iodide.
On the technique in general: Immunoblotting shows a protein as a band on a membrane.

A further test concerns U2OS cells. The test is described as follows: Histone H2AX Ser139 phosphorylation, single cell fluorescence microscopy. The test is classed as cell-based, human. The conditions noted are these: 100 nM, 60 minutes.
Test [2] has as its system AT-5 cells (mutated for ATM). Description: FACS analysis of DNA content / cell cycle distribution. Type of test: cell-based. The conditions noted are these: incubation for 36 hours (25 nM, 100 nM). The method, then:
(§1) FIG. 8. Induction of Cell Cycle Block and Clonogenic Activity by […] of Cells Mutated for ATM (AT-5) in Comparison to Non Mutated Cells (MRC-5). • A) Distribution of DNA content distribution during the cell cycle detected by FACS analysis of AT-5 cells after 36 hours of […] treatment (25 nM, 100 nM), or with adriamycin (0.02 μg/ml; ADRIAMYCIN), or with SC34 (100 nM), and as control from non treated cells. The histograms represent DNA content relative to the cell-numbers; the panel on the right indicates the percentage of the corresponding distributions of the various cell cycle phases as calculated with the MODFIT™ program-package. • B) Colony forming assay with cell lines mutated for ATM and induced for DNA damage by […].
The cell cycle response to DSB's induced by […] treatment were analysed in p53 positive or negative cells. […] Incubation for 36 hours of the cell lines mutated for ATM (AT-5) with […] results in a transient retardation of the cell cycle, as was determined by a DNA content FACS analysis. […] A single addition of […] for 60 minutes to the AT-5 cells was sufficient to induce cell cycle stop after 24 hours (FIG. 8A) and finally leads to cell death, obtained from not correctly ligated DNA, and consequently, the clonogenic activity after a single treatment with […] for 60 minutes was below 0.02% for AT-5 cells. […]
A general note: In flow cytometry, cells or beads pass a laser one at a time.

In test [3] the test system is AT-5 cells (mutated for ATM). Description: Colony forming assay. Type of test: cell-based. As for the experimental part: as §1
(§2) The cell cycle response to DSB's induced by […] treatment were analysed in p53 positive or negative cells. […] Incubation for 36 hours of the cell lines mutated for ATM (AT-5) with […] results in a transient retardation of the cell cycle, as was determined by a DNA content FACS analysis. […] A single addition of […] for 60 minutes to the AT-5 cells was sufficient to induce cell cycle stop after 24 hours (FIG. 8A) and finally leads to cell death, obtained from not correctly ligated DNA, and consequently, the clonogenic activity after a single treatment with […] for 60 minutes was below 0.02% for AT-5 cells. […] In addition, the cells were incubated with adriamycin as a control.

The test system of test [4] is MRC-5 cells (ATM positive control). The test is described as follows: Colony forming assay. The test is classed as cell-based. To be noted: 60 minutes treatment, 25 nM or 100 nM. As for the experimental part:
as §1, §2

For another test, the system named is XR-1 (XRCC4−/−) cells. The conditions noted are these: single addition of SCPVUTAT
The method, then: (§3) Clonogenic assay of CHO cells that were mutated for proteins involved in the NHEJ repair-pathway treated with […]. The cell lines used are AA8 (parental line), V3 (DNA-PCCS^(−/−)), xrss5 (KU80^(−/−)) and XR-1 (XRCC4^(−/−)), HIS P1.13-11 (KU70^(−/−)) and the corresponding parental cell line CHO-K1. Various dilutions of the CHO cells containing the NHEJ mutations as indicated were treated for 24 hours with […] (25 nM, grey bars; 100 nM, black bars) or not treated (white bars); the cells were washed and then grown for 7-10 days, stained with GIEMSA and colonies were counted.
(§4) These cell lines were analysed in the nuclease activity assays with […] in vivo and compared to the parental cell lines as indicated. […] Seven to ten days after addition, cell growth was analysed by staining with GIEMSA-blue and quantification of diverse cell-concentrations. […] In analogy, cell growth was quantified after a single treatment with […] for 12 hours (10 nM, grey bars; 75 nM, black bars; not treated, white bars). […] The multiwell-microtiter-plates (for an example see FIG. 13A) were scanned using the VersaDOC® (BioRad) imaging system and growth was automatically quantified with the software package Quantify One® for the analysis of the microtiter-plates (microtiter-plates scanning software).

The subject of test [5] is NHEJ mutated cell lines (V3, xrss5, XR-1, HIS P1.13-11). The test is described as follows: Colony formation assay of NHEJ mutated cell lines. Type of test: cell-based, rodent. As for the experimental part:
as §3, §4

The test system of test [6] is AT-5 cells (ATM negative). The conditions noted are these: SCPVUTAT 100 nM or HU 1 mM.
Procedure: AT-5 cells, negative for ATM were treated with [sequence]
P53 phosphorylation on Ser15 in response to [sequence] treatment was assayed in ATM positive or negative cell lines (MRC-5 and AT-5 respectively). For comparison parallel experiments were done with hydroxyurea (HU). […] For this immunoblotting experiments were done with extracts after treatment, by using specific antibodies to a phosphorylated Ser15 in p53 for specific detection.

Procedure for U2OS cells: U2OS cells were treated with [sequence] (100 nM, central column) for 60 minutes, in addition treatment was done with Wortmanin (50 μM, WM, right column), or with no agent as a control (left column). After treatment cells were stained with specific antibodies to H2AX-Ser-139 phosphorylated (red) or for Histone 2B (served as a control, green) and analysed on a single cell level by fluorescence microscopy.
As another example for a phosphorylation of a substrate of ATM in response to the object of the invention, histone H2AX Ser^139 phosphorylation was analysed. […] U2OS cells were treated for 60 minutes with [sequence], fixed and analysed for histone H2AX Ser^139 phosphorylation. Cells were analysed with a specific antiserum to phospho-Ser 139 on histone H2AX and analysed in the microscope on a single cell basis. As a control histone 2B was analysed.

B1: SCPVUTAT: single chain PvuII endonuclease (aa 1-157, GSGG linker, aa 2-157) fused to HIV Tat peptide and six histidine tag; SEQ ID NO:2 (protein, listed as Proteus vulgaris)
chain: MSHPDLNKLLELWPHIQEYQDLALKHGINDIFQDNGGKLLQVLLITGLTVLPGREGNDAVDNAGQEYELKSINIDLTKGFSTHHHMNPVIIAKYRQVPWIFAIYRGIAIEAIYRLEPKDLEFYYDKWERKWYSDGHKDINNPKIPVKYVMEHGTKIYGSGGSHPDLNKLLELWPHIQEYQDLALKHGINDIFQDNGGKLLQVLLITGLTVLPGREGNDAVDNAGQEYELKSINIDLTKGFSTHHHMNPVIIAKYRQVPWIFAIYRGIAIEAIYRLEPKDLEFYYDKWERKWYSDGHKDINNPKIPVKYVMEHGTKIYGSYGRKKRRQRRRGGSHHHHHH
Regarding B1, the “import / enrichment in the cells” value in test [1] (1-200 nM SCPVUTAT, controls 200 nM, 10 min incubation, immunoblot with PvuII antibody) was “enriched in the cells and in particular in the nucleus”. Moreover, the “uptake, share of the cells analysed” value in test [1] (protein added to culture medium (DMEM, 10% FCS), immunoblot after 10 min, immunofluorescence after 30 min) is listed as around 100%. Besides, the “histone H2AX Ser139 phosphorylation” value in the test on U2OS cells is listed as “rapidly induces histone H2AX Ser^139 phosphorylation”. For the same molecule, in test [2], the “change of cell cycle distribution (DNA content)” value was “strong increase in 4N G2 DNA content”. Besides, the “colonies relative to non treated cells (100%)” value in test [3] (100 nM, 60 minutes, grown 7-10 days (FIG. 8B black bar)) was around 0%. In test [3] (single treatment for 60 minutes), the clonogenic activity result is listed as “below 0.02%”. Further, the “sensitivity in colony forming assay compared to AT-5” value in test [4] is “less sensitive”. Moreover, the “sensitivity in clonogenic assay” value with XR-1 (XRCC4−/−) cells is “hypersensitive to blunt end DSB's”. For the same molecule, in test [5] (single addition of SCPVUTAT), the “colony formation, cells with mutants in the DNA-PK incl. catalytic subunit” value is on record as “strong reduction in the colony formation assay”. For the same molecule, the colony formation activity result in test [5] (single treatment, all NHEJ mutated cell lines analysed) is recorded as “strongly reduce colony formation activity”. Moreover, in test [6], the p53-Ser15 phosphorylation result is recorded as “specific phosphorylation of p53-Ser^15 is obtained”.
